Data taken from US20050053613A1 (MOUNT SINAI SCHOOL OF MEDICINE, published 2005).

B1: CEA liberated by PIPLC from CEA-GFP transfected 293T cells (other, UniProt P06731 35-685, looked up)
chain: KLTIESTPFNVAEGKEVLLLVHNLPQHLFGYSWYKGERVDGNRQIIGYVIGTQQATPGPAYSGREIIYPNASLLIQNIIQNDTGFYTLHVIKSDLVNEEATGQFRVYPELPKPSISSNNSKPVEDKDAVAFTCEPETQDATYLWWVNNQSLPVSPRLQLSNGNRTLTLFNVTRNDTASYKCETQNPVSARRSDSVILNVLYGPDAPTISPLNTSYRSGENLNLSCHAASNPPAQYSWFVNGTFQQSTQELFIPNITVNNSGSYTCQAHNSDTGLNRTTVTTITVYAEPPKPFITSNNSNPVEDEDAVALTCEPEIQNTTYLWWVNNQSLPVSPRLQLSNDNRTLTLLSVTRNDVGPYECGIQNELSVDHSDPVILNVLYGPDDPTISPSYTYYRPGVNLSLSCHAASNPPAQYSWLIDGNIQQHTQELFISNITEKNSGLYTCQANNSASGHSRTTVKTITVSAELPKPSISSNNSKPVEDKDAVAFTCEPEAQNTTYLWWVNGQSLPVSPRLQLSNGNRTLTLFNVTRNDARAYVCGIQNSVSANRSDPVTLDVLYGPDTPIISPPDSSYLSGANLNLSCHSASNPSPQYSWRINGIPQQHTQVLFIAKITPNNNGTYACFVSNLATGRNNSIVKSITVSASGTSPGLSA
notes: Soluble form in the supernatant of PIPLC treated transfectants; also called B9 reactive material

What was measured:
[1] = biological target: B1; assay: absorption on transfected hybridoma cells, immunoblot with mAb B9
Procedure: (§1) CEA exists as a GPI anchored glycoprotein on the surface of IECs. This molecule can be cleaved using the enzyme PIPLC. […] Absorption of CEA by either CD4 or CD8 was determined by immunoblotting with mAb B9. […] These findings are consistent with functional properties previously ascribed to gp180.

[2] = biological target: T1, human CD4 expressed on murine T cell hybridoma (3G4) (human, UniProt P01730 26-458); assay: absorption of PIPLC-released CEA on transfected hybridoma cells, immunoblot with mAb B9
T1 construct: whole, on cells
Procedure: as §1

Row | binding result [1] | binding result [2] | Binder
1 | binds |  | human CD8α expressed on murine T cell hybridoma (3G8) (receptor, whole, on cells; also called CD8α chains) not shown
2 |  | no binding | B1
